# Target: the molecule itself
# Assay: crystal structure; X-ray crystallography of β4ex; antiparallel contacts between β4ex molecules in the crystal lattice; crystals from 30% (w/v) PEG 1500, sitting drop, 20 °C
protein,measurement,value
"mouse β4 subunit extracellular domain fragment (domain or fragment, UniProt Q7M729 30-160, looked up, voltage-gated sodium channel β4 subunit, mouse, residues 30-160; amino acid numbering starts from the initiator methionine; His tag removed by TEV protease; contains all three Cys residues; also called β4ex; β4 extracellular domain; source: Escherichia coli cell-free method, purified (HisTrap, TEV cleavage, Mono Q, Superdex 75); not shown: histidine tag, N-terminal, cleaved) SLEVSVGKATTIYAINGSSILLPCTFSSCYGFENLYFKWSYNNSETSRILIDGIVKNDKSDPKVRVKDDDRITLEGSTKEKTNNISILLSDLEFSDTGRYTCFVRNPKEKDLNNSATIFLQVVDKLEKVDN",binding result,binds
